Test in all cases: method not stated in Example 7
One assay addresses β-NGF.
The target of assay [1] is C345C subunit of complement protein C5.
In the next assay the target is IL-17A.
IL-17A, sequence (Q16552 24-155): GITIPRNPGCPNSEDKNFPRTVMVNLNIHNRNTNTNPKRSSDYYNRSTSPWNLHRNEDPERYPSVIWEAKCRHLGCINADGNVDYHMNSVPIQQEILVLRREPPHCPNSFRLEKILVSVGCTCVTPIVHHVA

β-NGF, sequence (P01138 122-241): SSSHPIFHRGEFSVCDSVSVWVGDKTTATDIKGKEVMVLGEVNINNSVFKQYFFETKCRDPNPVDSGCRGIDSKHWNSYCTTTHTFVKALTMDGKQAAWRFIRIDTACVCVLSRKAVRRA
C345C subunit of complement protein C5, sequence (P01031 1532-1676): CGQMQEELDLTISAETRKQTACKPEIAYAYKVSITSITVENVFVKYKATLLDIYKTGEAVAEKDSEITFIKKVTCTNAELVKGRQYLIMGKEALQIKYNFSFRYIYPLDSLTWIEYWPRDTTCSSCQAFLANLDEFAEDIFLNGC

B1: APE1661 (antibody, human IgG1, kappa, V domains shown)
VH: EVQLVESGGGLVQPGGSLILSCAASGFTFTTYNMNWVRQAPGKGLEWVCVISTGGSNTYYADSVKGRFTCSRDNSKNTLYLQMNSLRAEDTAVYYCARDGGYSSSTLYAMDAWGAGTTVTVSS
VL: DVVLTQSPLSLAVLLGQPASISCRASKNIYNALAWYQQRPGQSPRLLIYNTDRLHTGVPDRFSGSGSGTDFTLKISRVEAEDVGVYFCQHYFDYPRTFGGGTKLEIKR
With B1, in the assay with β-NGF, the dissociation constant Kd was determined as 12 nM and the fold loss in β-NGF binding affinity (against the parental antibody, APE579 in Table 3) worked out at 2 fold.

B2: APE1775 (antibody, human IgG1, kappa, V domains shown)
VH: EVQLVESGGGLVQPGGSLILSCAASGFTFSSYAMTWVRQAPGKGLEWVCAISGSGSTYYADSVKGRFTCSRDNSKNTLYLQMNSLRAEDTAVYYCARRGLRYNYFDYWGAGTTVTVSS
VL: DVVLTQSPLSLAVLLGQPASISCRASQSVSSSYLAWYQQRPGQSPRLLIYGASSRATGVPDRFSGSGSGTDFTLKISRVEAEDVGVYFCQQYGRSLEYTFGGGTKLEIKR
In assay [1], B2 yielded an equilibrium dissociation constant (Kd) of 5 nM.

B3: APE1662 (antibody, human IgG1, kappa, V domains shown)
VH: EVQLVESGGGLVQPGGSLILSCAASGFTFSNHWMNWVRQAPGKGLEWVCAAINEDGSEKYYVGSVKVRFTCSRDNSKNTLYLQMNSLRAEDTAVYYCARDYYDILTDYYIHYWYFDLWGAGTTVTVSS
VL: DVVLTQSPLSLAVLLGQPASISCRASQSVSSSYLAWYQQRPGQSPRLLIYGASSRATGVPDRFSGSGSGTDFTLKISRVEAEDVGVYFCQQYGSSPLTFGGGTKLEIKR
As for B3, in the assay with IL-17A, the Kd came out at 0.21 nM and the fold improvement in antigen binding affinity (against the parental antibody, APE508 in Table 3) was 1.6 fold.

The Kd is the equilibrium constant for the complex coming apart.

For the origin of these results see patent US20140079691A1.
